Reference: the DeepSol protein solubility set

Test: soluble on expression in E. coli; label from the status in PepcDB or PDB records

Sequence	soluble on expression in E. coli
MHLSRCRKCGRVMKGERIDPYRVKLTCSCGFSDFRTMTEKVKTVNPFFQKGGFSPLLESERGKMVLTMQRANREHLEIISLEEISMLVSSDFDLPEVLQHVTAKVATQLKVSVCNIYLREGDEVVLAATHGFDPAFIGKIRIKIGDGITGSVARDGQYISLSRASQDPRYRYFPELQEEKYNSMLSFPIGDKKEVYGVINLNTTSIRSFHEDEIYFVSIIANLILTAIKLRQQVASSRKAAEASA	not soluble
MHNNENVSGISAYLLGLIIGDGGLYKLKYKGNRSEYRVVITQKSENLIKQHIAPLMQFLIDELNVKSKIQIVKGDTRYELRVSSKKLYYYFANMLERIRLFNMREQIAFIKGLYVAEGDKTLKRLRIWNKNKALLEIVSRWLNNLGVRNTIHLDDHRHGVYVLNISLRDRIKFVHTILSSHLNPLPPE	soluble
MHNSTGRYVLGMEVMTPTGMNLDIATSVANADLARFDQVVGEDGIERFTFAKIEYTKESDLFEKTCELTANLLDSLLTQLPRS	not soluble
MHPTYSAVQARLLEANRLSPELLAKSLCIIGAHHVDYADIYCQRTAYESWHLEEGIVKSGSFQINQGVGVRAVSGDKTAFAYADSLCIDSINRSARAVRAIGAAGGKVSAKMPSETRGKPVCSASDPIAGLDSAAKVALLNKVEAIAKAADPRIVQVMAGLTCEYDMVYLARLDGKHAADIRPMVRLNVTVIAKQGERREQGSAGGGGRYDLAYFDENLVHRFVDAAVKQALTNLESRPAPAGEMTVVLGNGWPGVLLHEAVGHGLEGDFNRKGTSVFSGRIGERVAAKGVTVVDQGDIAGRRGSLNIDDEGNETRRTVLIEDGILVGYMQDETNARLTGTQSTGNGRRESYASAPMPRMTNTFMENGSYEPEEIIASIDKGIYAVNFGGGQVDITSGKFVFSASEAWWVEGGRLQYPVKGATIIGNGPEVLKHVSMIGNDTALDSGVGVCGKEGQSVPVGVGQPTLRIDAGLTVGGSAI	not soluble
MHRNYFKKKQNLIFSEKQQSVEKYGDDWVHHFHTANARETFGKKIFGIFFPRNLSIERTRETPTAKEGDLLHNGNY	not soluble
MHSPTPFALAIFLGILYHIPTFSNQRSIMNNLELEQLINQKLSSDKINDYAPNGLQVEGKTEIKKIITGVTASQALINYAISQNADAILVHHGYFWKSETPCIRGMKGKRIKALLVNDINLYGYHLPLDVHPELGNNAQLAKLLDIENLQPLEKGSVSIPVWGELKEPMTGKDFAEKIEKVLNRKPLICIENGPHLIRKIGICTGGGQGYIDLAAEQGCDAFITGEVSEQTIHSAREQGLYFFSAGHHATERYGIKALGEWLAKEYGFDVEFKDIDNPALEHHHHHH	soluble
MHSQVFSAFPHSLPLRSWVNVIKNPQFVFDIHKGSITDACLSVVAQTFMDSCSTSEHRLGKDSPSNKLLYAKDIPSYKSWVERYYADIAKLPAISDQDMNAYLAEQSRLHAVEFNMLSALNEIYSYVSKYSEELIGALEQDEQARRQRLAYKVEQLINAMSIESLEHHHHHH	not soluble
MHTLLLLAALSNQITFTTTQQGDIYTVIPQVTLNEPCVCQVQILSVRDGVGGQSHTQQKQTLSLPANQPIELSRLSVNISSEDSVKIIVTVSDGQSLHLSQQWPPSAQ	not soluble
MHYDAIVVGGGMVGAAAALGLAQRGFQVAVIEQEMPTPFDATSPPDLRISAIGYASVALLKELDAWPRVQQMRSAPYRRLETWEWANARVVFDAADIHLPELGFMVENRVLQLALWESLQEEERCRCYCPATPQGLQRTDDGWCLQLADGQKLTASLVIGADGANSQVRQWAGIGISGWQYRQSCMLIGVETSQPQQDVTWQQFTPSGPRAFLPLFDQWGSLVWYDSPQRIRQLQAMPLAQLDKEIAAAFPERLGTVKVISAGSFPLVRRHAQTYIKPGLVLLGDAAHTINPLAGQGVNLGYRDVEALLDVLINARNAGEQWASERVLRRYQCRRMPDNLMMQSGMDLFYSAFSNALPPLSFARNMALMVAQRAGVLKQRALKYAIGVLEHHHHHH	soluble
MHYFSIHDQSGRHIGFFILLADDESEARPQSGRFAVKLEGGMENHVLSPFGQTEIPQYWRVVKDRIELFFDEAPVGTLRNEYLTVSGQTFVLNDLTGNM	not soluble
MHYSYLEPGLHAELAAITPDEAVAHLRNHLGNLLLDPAVTAAYINRLGVLTPEETTPSTRAWLTYLLVRYCDLLPLDLAAQRILAQVTGNAAPHLRDLERCAIPDPIERKLERLGAGEDSERNRAMLLALLHEYPYSPAIMERLMTVELALDIPVGGEWLPSVRPPAGLLRPLHERLFIHAMMQGDTERALQHAAACVPDNPSPHLLNHLAELHARLGDTQQALNLYGASLEADPLQHPVRLRMEALAKPPRAHADALHHRIAICLYSFNKAELLERTLSSLAASQTGEAHILVLLNGCTDDSATRVAAVNERLFNGRLEVIDMPINIGAPAARNWLLAKQTVREADFVAFLDDDVDVPAAWLPRLVGNLEEHPGAGVAGTRVRNPGDVPRLQYLYRNISVARPGLIRLSLDTPTLHHDTGFYDFTRSTTSVMGCCHVFTRRALDEVPAFDLRFSPSQMDDIAHDIDLALAGFDVLYTGDVVCVHHQMSGLGRANATDWKRFGNVAGNDVKFYYRFADRLDALGRLNNLGFMPDMPPALEHHHHHH	soluble
MIAAYENSKWEPVKWENDMHCAVKIQDKNQWRRGQIIRMVTDTLVEVLLYDVGVELVVNVDCLRKLEENLKTMGRLSL	soluble
MIAGYIMAAENQTLNQWTINQLGITRGDSILEVGFGPGYCMQQMLKREKDVHLHGIDVSEAMLKLAARRVKPKGVRLIQGSIETFPLPASFYDKVISVNNYTIWNDQTKGIKQIYRALKPGGKAAITMQPREADASPEKTKSFGRQMIADFKAAGFEDIDIQFKNIKPELSVCATAKKPATLEHHHHHH	not soluble
MIAPRLVSIIIPTLNEEDAIAPTLRQARRQEGPVEILVADGGSTDDTRSVAQARGATVLQAPRGRAPQMNHGADCSSGDILLFLHADTRLPPNGLSRIRRALAAPDAIAGTFRLRFDDPTPLLRFYAWCTRWPWIRLCFGDRGQFVERSAFEAVGGFPDWPLFEDLELAARLQGHGRFRFLDAAVTTSARRFRRHGPLRQQLLNLYLWGHYLWGTDPDLLASLYPDRLGPVDQQPRSLEHHHHHH	soluble
MIAWYGMALDQAVVNRPVKAKLYSKIVDSVECTACSRYCRLKPGKTGFCGVRKNIDGDLYLLVYGLPAAINVDPIEKKPVLHMYPGARIFSLSTVGCSFACQYCQNYDISQRRTITGYHYDPEEIVEEALSMGCQGIAYTYNEPSIFMEYAHDIGVIARRHGLINIFVTNGFETPEAIDYARDFLDAATVDFKGNASDEFYRKYISVPSARPIFETLANLKSAGIHVEVTDLVVPEVGDRLEDARTMLERIMDILGEYVPISFLRFHPDYRMMDLPDTPVETLRKHHDLAVSMGFKYVYIGNVPGYGENTYCPNCGNLLIERFVFSSKVIGLDRNGRCKKCGYDPQIPLMKEKRADYIS	not soluble
MIDFNVDSARCTRCGQCVADCPSRIIVMATGEYPSIAPGKEFSCLRCEHCLAVCPEAAISILGFSPDGSTPLKGNLPETDQLETLIAGRRSVRRYCPENLSPELIDKLITVASCAPTGVNARKVRFTVLDDREKTAHFRDEVMERLVRLLEEEALPESKAYYARFVKVWQKHKIDLVFRDAPHLLIATAPKSLSTPRQDCVIALTTFELYAQACGIGTLWNGIATWAIEEMLPEMRQRLGIPDDHAFGYAMLFGKPAVRYARTVQHHPPEIYRVPLEHHHHHH	not soluble
MIDHAHLRLFQFCDSQFPTGAFSHSFGLETYIQRDTVHDEESFQQWLVLFLNEQLTYADGLTMRLVYDALNENDTKAILKLDRILFVQNLPKETRQGSKQMGNRMVKLASELYDSDWINWYHAQMKDKKASLHPAICFTMLGHHLGVDIETIIDYYLYQNVSSLTQNAVRAIPLGQTAGQRIVHKMIPIMKETRDHIMTIPASQLGITAPGLEINQMEHENVNVRIFISLEHHHHHH	not soluble
MIDIIANIASILGFTMQMNDKFFAHGMNKEQADNEMLLLFLKQLSVKSKAIKEIHQKYHSLSNDFRLVAVFLTNPVIYEKIVTNRSRALRNALKESLQTPSARIAQTQLSAQLRPCFENLLVSIKDESHLSVEFSGINDCEMKAILRKILNAQKEIFQLHQQFCGIMKTIGSYPLGNWGDSEFDFIKTNQRVFISDFYSIIDYADIILMGYLDIYHCALNLK	not soluble
MIDILLCDVIITIGDVEIKAHKTILAAGSTYFKTMFTTPMIARDLATRVNLQMFDKMSSKILYSTYTIGI	not soluble
MIDKVRAFIHRHQLLSEGAAVIVGVSGGPDSLALLHVFLSLRDEWKLQVIAAHVDHMFRGRESEEEMEFVKRFCVERRILCETAQIDVPAFQRSAGLGAQEAARICRYRFFAELMEKHQAGYVAVGHHGDDQVETILMRLVRGSTSKGYAGIPVKRPFHGGYLIRPFLAVSRAEIEAYCRQMGLSPRCDPSNEKDDYTRNRFRHHIVPLLRQENPRLHERFQQYSEMMAEDEQFLEELAADALNKVMEKQHRDAALSIGPFLELPRPLQRRVLQLLLLRLYGGVPPTLTSVHIGHILMLCERGRPSGMIDLPKGLKVIRSYDRCLFTFDAESGEKGYWFELPVPALLPLPNGYAIISEFGEHYPRKQAGNDWFVVDPASVSLPLRVRTRRRGDRMVLKGTGGTKKLKEIFIEAKIPRMERDRWPIVEDADGRILWVPGLKKSAFEAQNRGQARYILLQYQAMNS	soluble
MIDLNGQLHDVQATETLGQALAAARPVSAVVQLHGDLGAGKSTLARALLRALGVAGPIRSPTYTLVERYPLSTGDEAWHLDLYRIGHAGELDFLGLDEGSASLWLVEWPERGAGVLPPVDLDVELAVAGEGRSVRLLGRSAIGHAWMDRLSRQPQLQVLFAASREELEHHHHHH	not soluble
MIDMFHINIPFKKDVIIEMGDCGFVDFAKLAEKTELKIACGNVEFSVVNDQKKVRTDDLYHPWSTIPSSYTDIACKVFDAEPRANVFWGYLQLKASPAKVMQGHNVYGSEDFRLCVEYLLDSLQKAQPELWELLDVGLAEMTRIDCTYSIKCANPDILRQTIKQMGNVSNRYIKPARNSDFETTLYFNRATKANPGAGRSFELCIYTKHDEIAHQLADLKRRARQGDSDRFNRIIDELSKPELQAFAANRLRFEGRAKKRFIQKHVGSANLWQVIRHAEQFEAKNGYRFCEWMFKTLFHDLLESLKGEELELYNDSKIKQLLRDAYSTMTPKGNISYAKADRLFRFYMTLCDRGYQELKAHSSKATLHRNMRDLMAIGFSKADLQNLSEGERMPLAQVLNFNFDNQRPANYVEPVSPTALEHHHHHH	not soluble
MIEIIETGPFNTVQDLGRPGYRDVGVSAGGAMDPLAVKIGNILLGNFDDAAVIEVQTFPFKMRFEARAAFAVTGADGQMLLDGRELLPWCTHVAAEGQVLELKQPPQFARAYISLTGGVDVPVLMGSRSTALRGGFGGNAGRPLARGDRLKIGTVADALPLPASGIAVIEPATALRDVFAPPIEGILQIRAIPAGEHGLFASDGEAFWSQTWRISSRSDRTGYRLSGEPIKPTETIEMRSHGVVPGVVQVPPGGEPIIQMSDANTAGGYPKVAGVIECDLWRLGQARIGSRLQFVRSTHAEARVVEQAVASYLEDIRQTSHMVKRALKAMAAAALEHHHHHH	not soluble
MIEIKRIQQQPDLAQAIYAVMAAVYLVSPWTLEQIQADLSQDQTWYALAYDGAEVIGFLAVQENLFEAEVLQIAVKGAYQGQGIASALFAQLPTDKEIFLEVRQSNQRAQAFYKKEKMTVIAERKAYYHDPVEDAIIMKREIDEG	soluble
